Measured values reported in patent US20200207874A1 (Hoffmann-La Roche, published 2020).
Several values for one entry are separate records, joined by “and”; a condition that tells them apart may be missing. Equal entries are not always repeated. One block for each binder: values may come before it.

Columns and labels:
streptavidin (SA) = biological target: T1, streptavidin (SA) (UniProt P22629 37-163, limits assumed); assay: SPR (BIAcore 3000), streptavidin injected over 2C4-FAB'-ss-L-DNA bound to captured huFc chimera HER2 ECD
T1 construct: Injected at 250 nM as effector moiety to probe the biotin of the 75mer ss-L-DNA linker
Text: The BIAcore assay setup comprised the following (see also FIG. 6): A polyclonal goat anti human IgG-Fc gamma antibody was immobilized on the BIAcore CM5 sensor and serves as a capture system for the huFc chimera HER2 ECD.
The FAB fragments have a calculated molecular weight of 57 kDa, each. […] Streptavidin is the effector moiety.

[1] = biological target: T2, IGF-1R(1340-1366)[1346-pTyr]amid (phosphotyrosine at 1346; C-terminal amide); assay: SPR (BIAcore 3000), complex on SA sensor, peptide in solution
T2 construct: also called pIGF-1R peptide (free in solution); phosphorylated IGF-1R peptide
T2 peptide: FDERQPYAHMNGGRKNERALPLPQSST
Method: (§1) A BIAcore 3000 instrument (GE Healthcare) was used with a BIAcore SA sensor mounted into the system at T=25° C. The system was preconditioned at 100 μl/min with 3×1 min injection of 1 M NaCl in 50 mM NaOH and 1 min 10 mM HCl.
(§2) 124 RU amino-PEO-biotin were captured on the reference flow cell 1. […] As a control, buffer was injected instead of the ss-Fabs.
(§3) The dissociation was monitored at 50 μl/min for 5.3 min. The system was regenerated after each concentration step with a 12 sec pulse of 250 mM NaOH and was reloaded with ss-FAB ligand.

IGF-1R(1340-1366)amid [2] = biological target: T3, IGF-1R(1340-1366)amid (C-terminal amide); assay: SPR (BIAcore 3000, SA sensor, 25 C): ss-FABs hybridized on the biotinylated T40-Bi 77-mer ss-DNA linker on the surface; peptide as analyte in solution
T3 construct: also called IGF-1R peptide (free in solution); non-phosphorylated IGF-1R peptide
T3 peptide: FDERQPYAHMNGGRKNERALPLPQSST
Method: as §1, §2, §3

[3] = biological target: T2, IGF-1R(1340-1366)[1346-pTyr]amid; assay: as above
Method: as §1, §2, §3

IGF-1R(1340-1366)amid [4] = biological target: T3, IGF-1R(1340-1366)amid; assay: SPR (BIAcore 3000, SA sensor, 25 C): ss-FABs hybridized on the biotinylated T0-Bi 37-mer ss-DNA linker on the surface; peptide as analyte in solution
Method: as §1, §2, §3

[5] = biological target: T2, IGF-1R(1340-1366)[1346-pTyr]amid; assay: as above
Method: as §1, §2, §3

IGF-1R(1340-1366)amid [6] = biological target: T3, IGF-1R(1340-1366)amid; assay: SPR (BIAcore 3000, SA sensor, 25 C): single ss-FAB hybridized on the biotinylated T0-Bi 37-mer ss-DNA linker on the surface; peptide as analyte in solution
Method: as §1, §2, §3

[7] = biological target: T2, IGF-1R(1340-1366)[1346-pTyr]amid; assay: as above
Method: as §1, §2, §3

[8] = biological target: T4, IGF-1R(1340-1366)[1346-pTyr; Glu(Bi-PEG-1340]amid (not fully specified; phosphotyrosine at 1346; PEG linker with biotin on the glutamic acid at position 1340; C-terminal amide); assay: SPR (BIAcore 2000), biotinylated peptide on SA sensor, 100 nM analyte
T4 construct: also called pIGF-1R peptide (biotinylated); phosphorylated IGF-1R peptide
T4 peptide: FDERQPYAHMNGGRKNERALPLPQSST

[9] = biological target: T5, IGF-1R(1340-1366); Glu(Bi-PEG-1340]amid (not fully specified; PEG linker with biotin on the glutamic acid at position 1340; C-terminal amide); assay: as above
T5 construct: also called IGF-1R peptide (biotinylated, non-phosphorylated)
T5 peptide: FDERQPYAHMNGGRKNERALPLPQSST

[10] = biological target: T6, hInsR(1355-1382)[1361-pTyr; Glu(Bi-PEG-1355]amid (human, not fully specified; phosphotyrosine at 1361; PEG linker with biotin on the glutamic acid at position 1355; C-terminal amide); assay: SPR (BIAcore 2000), biotinylated peptide on SA sensor
T6 construct: also called pIR peptide; IR (phosphorylated insulin receptor) peptide (biotinylated)
T6 peptide: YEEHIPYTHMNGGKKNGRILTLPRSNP

[11] = biological target: T7, INR(1355-1382)[1361-pTyr]amid (human, phosphotyrosine at 1361; C-terminal amide); assay: SPR (BIAcore 3000, SA sensor, 25 C): single ss-FAB hybridized on the biotinylated T40-Bi 77-mer ss-DNA linker on the surface; peptide as analyte in solution
T7 construct: also called pINR peptide; phosphorylated insulin receptor peptide (free in solution)
T7 peptide: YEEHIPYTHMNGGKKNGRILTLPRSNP
Method: as §1, §2, §3

IGF-1R(1340-1366)amid [12] = biological target: T3, IGF-1R(1340-1366)amid; assay: as above
Method: as §1, §2, §3

[13] = biological target: T2, IGF-1R(1340-1366)[1346-pTyr]amid; assay: as above
Method: as §1, §2, §3

T1 sequence (P22629 37-163 limits assumed): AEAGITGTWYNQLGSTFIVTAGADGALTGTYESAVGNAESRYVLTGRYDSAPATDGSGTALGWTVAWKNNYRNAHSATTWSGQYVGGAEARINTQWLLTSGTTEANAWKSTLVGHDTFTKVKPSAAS

binding result (streptavidin (SA)): no binding (tested: 250 nM)
B1: anti-HER2 antibody 2C4-FAB′-ss-L-DNA (Fab, V domains shown)
VH: EVQLVESGGGLVQPGGSLRLSCAASGFTFTDYTMDWVRQAPGKGLEWVADVNPNSGGSIYNQRFKGRFTLSVDRSKNTLYLQMNSLRAEDTAVYYCARNLGPSFYFDYWGQGTLVTVSS
VL: DIQMTQSPSSLSASVGDRVTITCKASQDVSIGVAWYQQKPGKAPKLLIYSASYRYTGVPSRFSGSGSGTDFTLTISSLQPEDFATYYCQQYYIYPYTFGQGTKVEIKQ
modifications: cysteine of the FAB′ hinge region linked via maleimide to fluorescein-labeled ss-L-DNA oligonucleotide
notes: FAB′ of 2C4 (Pertuzumab); also called 2C4-ss-L-DNA; 2C4-75mer

Kd [1]: 0.01 nM
Kd (IGF-1R(1340-1366)amid [2]): 0.973 nM and 1 nM
t1/2 diss (IGF-1R(1340-1366)amid [2]): 4.3 min
Kd [3]: 0.0125 nM
B2: T40 dual binding agent: ss-FAB 8.1.2 and ss-FAB 1.4.168 on the biotinylated T40-Bi 77-mer ss-DNA linker (linker 10) (bispecific antibody, V domains shown)
VH 1: EVQLQQSGPALVKPGASVKMSCKASGFTFTSYVIHWVKQKPGQGLEWIGYLNPYNDNTKYNEKFKGKATLTSDRSSSTVYMEFSSLTSEDSAVYFCARRGIYAYDHYFDYWGQGTSLTVSS
VL 1: QIVLTQSPAIMSASPGEKVTLTCSASSSVNYMYWYQQKPGSSPRLLIYDTSNLASGVPVRFSGSGSVTSYSLTISRMEAEDAATYYCQQWSTYPLTFGAGTKLELK
VH 2: QCDVKLVESGGGLVKPGGSLKLSCAASGFTFSDYPMSWVRQTPEKRLEWVATITTGGTYTYYPDSIKGRFTISRDNAKNTLYLQMGSLQSEDAAMYYCTRVKTDLWWGLAYWGQGTLVTVSA
VL 2: QLVLTQSSSASFSLGASAKLTCTLSSQHSTYTIEWYQQQPLKPPKYVMELKKDGSHTTGDGIPDRFSGSSSGADRYLSISNIQPEDESIYICGVGDTIKEQFVYVFGGGTKVTVLG
modifications: FAB′ hinge cysteine linked to ss-DNA
notes: Assembled on the SA sensor surface; also called T40-bi complex

Kd (IGF-1R(1340-1366)amid [4]): 1.2 nM and 1 nM
t1/2 diss (IGF-1R(1340-1366)amid [4]): 5 min
Kd [5]: 0.0344 nM
Kd [1]: 0.03 nM
B3: T0 dual binding agent: ss-FAB 8.1.2 and ss-FAB 1.4.168 on the biotinylated T0-Bi 37-mer ss-DNA linker (linker 17) (bispecific antibody, V domains shown)
VH 1: EVQLQQSGPALVKPGASVKMSCKASGFTFTSYVIHWVKQKPGQGLEWIGYLNPYNDNTKYNEKFKGKATLTSDRSSSTVYMEFSSLTSEDSAVYFCARRGIYAYDHYFDYWGQGTSLTVSS
VL 1: QIVLTQSPAIMSASPGEKVTLTCSASSSVNYMYWYQQKPGSSPRLLIYDTSNLASGVPVRFSGSGSVTSYSLTISRMEAEDAATYYCQQWSTYPLTFGAGTKLELK
VH 2: QCDVKLVESGGGLVKPGGSLKLSCAASGFTFSDYPMSWVRQTPEKRLEWVATITTGGTYTYYPDSIKGRFTISRDNAKNTLYLQMGSLQSEDAAMYYCTRVKTDLWWGLAYWGQGTLVTVSA
VL 2: QLVLTQSSSASFSLGASAKLTCTLSSQHSTYTIEWYQQQPLKPPKYVMELKKDGSHTTGDGIPDRFSGSSSGADRYLSISNIQPEDESIYICGVGDTIKEQFVYVFGGGTKVTVLG
modifications: FAB′ hinge cysteine linked to ss-DNA

Kd (IGF-1R(1340-1366)amid [6]): 1.35 nM and 1 nM
koff (IGF-1R(1340-1366)amid [6]): 0.00326 s⁻¹
kon (IGF-1R(1340-1366)amid [6]): 2.41e+06 M⁻¹ s⁻¹
t1/2 diss (IGF-1R(1340-1366)amid [6]): 4 min
Kd [7]: 2.59 nM and 3 nM
koff [7]: 0.00291 s⁻¹
kon [7]: 1.12e+06 M⁻¹ s⁻¹
t1/2 diss [7]: 4 min
T1/2 dis [8]: 3 min
T1/2 dis [9]: 3 min
binding result [10]: no binding (tested: 100 nM)
Kd (IGF-1R(1340-1366)amid [12]): 1.1 nM and 1 nM
koff (IGF-1R(1340-1366)amid [12]): 0.00362 s⁻¹
kon (IGF-1R(1340-1366)amid [12]): 3.3e+06 M⁻¹ s⁻¹
t1/2 diss (IGF-1R(1340-1366)amid [12]): 3 min
Kd [13]: 2.14 nM and 2 nM
koff [13]: 0.00419 s⁻¹
kon [13]: 1.96e+06 M⁻¹ s⁻¹
B4: ss-FAB′ 1.4.168 (Fab, V domains shown)
VH: DVKLVESGGGLVKPGGSLKLSCAASGFTFSDYPMSWVRQTPEKRLEWVATITTGGTYTYYPDSIKGRFTISRDNAKNTLYLQMGSLQSEDAAMYYCTRVKTDLWWGLAYWGQGTLVTVSA
VL: QLVLTQSSSASFSLGASAKLTCTLSSQHSTYTIEWYQQQPLKPPKYVMELKKDGSHTTGDGIPDRFSGSSSGADRYLSISNIQPEDESIYICGVGDTIKEQFVYVFGGGTKVTVLG
modifications: cysteine of the FAB′ hinge region linked to 17mer ss-DNA comprising SEQ ID NO: 05 with fluorescein
notes: FAB′ from pepsin cleavage of murine mAb 1.4.168; also called ss-FAB 1.004.168; fluorescein-ss-FAB′ 1.4.168
binding result [11]: no binding (tested: 300 nM (highest peptide step))
